Test results from article PMC12127886, “Mapping Hsp104 interactions using cross‐linking mass spectrometry” (FEBS Open Bio, 2025).
Each block holds one molecule with its values, some of them ahead of it.

Tests used:
[1] = target: Calcarisporiella thermophila CtHsp104ΔN (153–883 aa) (Calcarisporiella thermophila); experiment: SEC; purified Hsp104wt and Hsp104mt on a superdex-200 10/300GL column; molecular weights in Table S2
[2] = target: CtHsp104ΔN2R encoding the R328M/R757M mutations (Calcarisporiella thermophila); experiment: as above
[3] = target: the molecule itself; experiment: SEC; Hsp104fl and PCSK9 co-expressed in E. coli, complex purified by Ni-NTA, TEV cleavage and SEC; molecular weights in Table S2

stoichiometry N [1]: 6
Molecule: Calcarisporiella thermophila CtHsp104ΔN (153–883 aa) (domain or fragment)

stoichiometry N [2]: 6
Molecule: CtHsp104ΔN2R encoding the R328M/R757M mutations (domain or fragment)

B1: Thermochaetoides thermophila TtHsp104 full length (natural protein, UniProt A0A2Z6G185 1-926, looked up)
chain: MNSKMEFTDRAKKALEDAMALAEQYQHLQLQPVHLAVALLDPTPDPSKDQSAAPGTTSTLFRQVVERAHGDAQAFDRALKKKLVRLPSQDPPPDQVSMSAGCSSVLRKANELQKVQKDSYIAVDHLIAALAEDHTIQEALKEANIPKPKLVQDAIQAIRGNKRVDSRNADTEQENENLSKFCIDMTAMAREGKIDPVIGREEEIRRVIRILSRRTKNNPVLIGEPGVGKTTIVEGLAQRIVNADVPDNLAACKLLSLDVGALVAGSKYRGEFEERMKGVLKEIQESKETIILFVDEIHLLMGAGSSGEGGMDAANLLKPMLARGQLHCIGATTLAEYRKYIEKDAAFERRFQQVLVKEPSITETISILRGLKEKYEVHHGVNIADAAIVAAANLAARYLTSRRLPDSAVDLIDEAAAAVRVARESQPEIIDSLERRLRQLKIEIHALSREKDEASKARLAQAKQDAQNVEEELRPLREKYERERQRGKAIQEAKMKLEALRVKAEDASRMGDHSRAADLQYYAIPEQEAIIKRLEAEKAAADAALNANGADVGGSMITDVVGPDQINEIVARWTGIPVTRLKTSEKEKLLHMEQALSKIVVGQKEAVQSVSNAIRLQRSGLSNPNQPPSFLFCGPSGTGKTLLTKALAEFLFDDPKSMIRFDMSEYQERHSLSRMIGAPPGYVGHDAGGQLTEALRRRPFSILLFDEVEKAAKEVLTVLLQLMDDGRITDGQGRVVDAKNCIVVMTSNLGAEYLSRANNGKDGKIDPTTRELVMNTLRNYFLPEFLNRISSIVIFNRLTRREIRKIVDLRIAEIQKRLTDNDRNVTIKVSDEAKDKLGAQGYSPVYGARPLQRLLEKEVLNRLAILILRGQIREGEVACVELVDGKVQVLPNHPDSEPEDVDVDMESDDAVDEVAPDSMDEDIYND
notes: Hsp104 of Thermochaetoides thermophila, full length; Hexamer in the complex with PCSK9 by SEC; also called Hsp104fl; source: E. coli BL21, co-expressed with PCSK9, complex purified (Ni-NTA, TEV cleavage, SEC)
stoichiometry N [3]: 6
